# Test results from patent US20230080865A1.
# Legend:
# [1] = biological target: AEG::SOE2 chimeric recombinant protein; assay: ELISA, AEG::SOE2 coated on wells; reagent 1:1000
# [2] = biological target: AEG::SOE3 chimeric recombinant protein; assay: ELISA, AEG::SOE3 coated on wells; reagent 1:1000
substance,measurement,setting,value
secondary peroxidase-conjugated goat anti-mouse IgG (antibody),ELISA signal,[1],0.11
same,ELISA signal,[2],0.111
